Test results taken from the supplement of paper PMC7125110.
± gives the standard error. For some assays here: Variants at the floor of the assay were thinned out.

B1: glmS ribozyme (parent)
chain: AUAAAAGCGCCAGAACUACAGAAAUGUAGUUGACGAGGAGGAGGUUUAUCGAAUUUUCGGCGGAUGCCUCCAAA

Columns and labels:
Conditions in all cases: with glucosamine-6-phosphate
glucosamine-6-phosphate [1] = variants of: B1; experiment: kcat; higher = faster cleavage; RNA array
Method in brief: (§1)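 In situ transcription by E. coli RNA polymerase produced barcoded ribozyme variants on sequenced MiSeq chips, and a hybridised Cy3 probe tracked them at 37 °C. Glucosamine-6-phosphate was flowed in at 40 μM to 10 mM in HEPES/KCl/Mg(OAc)2 buffer. kcat and KM were taken from weighted Michaelis–Menten fits of kobs values from exponential decay fits.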

glucosamine-6-phosphate [2] = variants of: B1; experiment: KM; higher = weaker cofactor use; RNA array
Method in brief: as §1

glucosamine-6-phosphate [3] = variants of: B1; experiment: self-cleavage kobs at 160 uM GlcN6P; higher = faster cleavage; RNA array
Method in brief: as §1

glucosamine-6-phosphate [4] = variants of: B1; experiment: self-cleavage kobs at 640 uM GlcN6P; higher = faster cleavage; RNA array
Method in brief: as §1

glucosamine-6-phosphate [5] = variants of: B1; experiment: self-cleavage kobs at 2500 uM GlcN6P; higher = faster cleavage; RNA array
Method in brief: as §1

glucosamine-6-phosphate [6] = variants of: B1; experiment: self-cleavage kobs at 10000 uM GlcN6P; higher = faster cleavage; RNA array
Method in brief: as §1

glucosamine-6-phosphate [7] = variants of: B1; experiment: self-cleavage kobs at 40 uM GlcN6P; higher = faster cleavage; RNA array
Method in brief: as §1

| Variant | kcat (glucosamine-6-phosphate [1]) [s⁻¹] | KM (glucosamine-6-phosphate [2]) [µM] | self-cleavage kobs at 160 uM GlcN6P (glucosamine-6-phosphate [3]) [s⁻¹] | self-cleavage kobs at 640 uM GlcN6P (glucosamine-6-phosphate [4]) [s⁻¹] | self-cleavage kobs at 2500 uM GlcN6P (glucosamine-6-phosphate [5]) [s⁻¹] | self-cleavage kobs at 10000 uM GlcN6P (glucosamine-6-phosphate [6]) [s⁻¹] | self-cleavage kobs at 40 uM GlcN6P (glucosamine-6-phosphate [7]) [s⁻¹] |
| --- | --- | --- | --- | --- | --- | --- | --- |
| G37A U47G | 0.000419 ± 0.0001 | 1250 ± 600 | 9.69e-05 ± 1.9e-05 | 0.000127 ± 1.6e-05 | 0.000274 ± 4.4e-05 | 0.000396 ± 5.4e-05 |  |
| A12C G60C | < 1e-05 |  |  | < 1e-05 |  | < 1e-05 |  |
| U46A C67U | 0.00326 ± 0.0007 | 2370 ± 780 | 0.000165 ± 2.9e-05 | 0.000811 ± 0.00012 | 0.00173 ± 0.00027 | 0.00257 ± 0.00033 | 9.11e-05 ± 2.1e-05 |
| G13A U56G | 0.000892 ± 0.0002 | 3800 ± 1300 | 4.73e-05 ± 9.8e-06 | 0.000128 ± 1.8e-05 | 0.000264 ± 5.9e-05 | 0.000696 ± 8.2e-05 |  |
| C10A A42C | < 1e-05 | 2410 ± 820 | < 1e-05 | < 1e-05 |  |  | < 1e-05 |
| A15U G32C | 0.000139 ± 7.8e-06 | 2550 ± 370 |  | 3.14e-05 ± 7.2e-06 | 6.49e-05 ± 8.6e-06 | 0.000112 ± 9.6e-06 |  |
| U46G U65C | 4.23e-05 ± 1.3e-06 | 1730 ± 260 |  |  |  | 3.6e-05 ± 7.3e-06 |  |
| A42U U45G | 0.00034 ± 6.6e-05 | 1880 ± 720 | 4.68e-05 ± 1.4e-05 | 7.31e-05 ± 1.5e-05 | 0.000225 ± 3.8e-05 | 0.000278 ± 4.1e-05 |  |
| A48U U56C | 6.46e-05 ± 1e-05 |  | < 1e-05 |  | 4.13e-05 ± 1.7e-05 | 5.09e-05 ± 7.6e-06 |  |
| U49G C67U | 0.000381 ± 5.6e-05 | 2520 ± 770 |  | 7.24e-05 ± 1.9e-05 | 0.000257 ± 6.4e-05 | 0.000292 ± 4.6e-05 |  |
| A12G C50G | 1.17e-05 ± 2.1e-06 |  |  |  |  |  |  |
| G40U C70G | 0.000495 ± 8.8e-05 | 1770 ± 560 | 4.28e-05 ± 7.1e-06 | 0.000121 ± 1e-05 | 0.000346 ± 3.4e-05 | 0.000404 ± 3.4e-05 | 2.91e-05 ± 7.3e-06 |
| C11U A14U G38A C50U U65G | 2.42e-05 ± 9.7e-06 |  |  |  |  |  |  |
| A52G U56A | 0.00139 ± 0.00027 | 4470 ± 1300 | 6.31e-05 ± 1.3e-05 | 0.000166 ± 2.9e-05 | 0.000441 ± 7.1e-05 | 0.00102 ± 0.00014 |  |
| C11U U49G | 1.33e-05 ± 1.3e-06 |  |  |  |  |  | < 1e-05 |
| A53G G66U | 0.00201 ± 0.0004 | 1650 ± 540 | 0.000168 ± 3.4e-05 | 0.00056 ± 7.9e-05 | 0.00179 ± 0.00022 | 0.00154 ± 0.00019 | 4.34e-05 ± 8.5e-06 |
